# Experimental data taken from the nanobody polyreactivity screen of Harvey et al. (2022).
# Experiment: yeast display, Sf9 membrane polyspecificity reagent, FACS + sequencing; frameworks hold sequencing errors
# Method in brief: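 Nanobodies came from a synthetic yeast display library in Saccharomyces cerevisiae BJ5465, induced with galactose for 36–48 hours and stained for 1 hour at 4 °C with 10% biotinylated, detergent-solubilized Sf9 membrane reagent. Cells were enriched on streptavidin microbeads and then FACS-sorted, with low and high (top ~1%) gates set on anti-HA fluorescence for expression and streptavidin fluorescence for reagent binding. Each polyreactivity label reflects the gate a clone came from. Genes were amplified by colony PCR, sequenced by MiSeq 2 × 250 and filtered by CDR length.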
row,Sequence,polyreactivity (PSR sort gate)
1,QVQLVESGGGLVQAGGSLRLSCAASGSIVYTNALGWSRQAPAKERELVAAISGSGGNTYYADSVKVRFTISRDNAKNTVYLQMNSLNPEDTAVYYCAADRNAYYYDSYYYWGLGTQVTVSS,high polyreactivity
2,QVQLVESGGGLVQAGGSLRLSCAASGSIVYYYGMGWYRPAPGKETELVAAISTGGSTYYADSVKGRFTISRDKAKKTVYLQMNSLKPEDTADFYCSADYYTQWQTRYDYWGQGTQVTVSS,low polyreactivity
3,QVQLVESGGGLVQAGGSLRLSCAASGSIYDPYAMGWYRQAPGKERELVAAINGGSGSTFYADSVKGRFTISRDNAKNTVYFQMNSLKPEDTAVYYCAAKIWRYSPSYYPEPRGDYWGQGTQVNVSS,low polyreactivity
4,QVQLVESGGGLVQAGGSLRLSCAASGSIYGSYVMGWYRQAPGKERELVAAINWSGGRTYYADSVKGRFTISRDNAKYTVFLQMNSLKPEDTAVYYCAARATNVYSKMDYWGQGTQVSVSS,high polyreactivity
5,QVQLVESGGGLVQAGGSLRLSCAASGSIYGYTMGWYRPAPGKERELVAAINRRADRTYYADSVKGRYTISRDNAKNTVYLQMNSLKPEDTAVYYCNKGGWYTLGYWGQGTQVTVSS,high polyreactivity
6,QVQLVESGGGLVQAGGSLRLSCAASGSIYHPYALGWYRQAPGKERELVAAISKSGGNTYYADSVKGRFTISRDNAKNTVYLQMNCLKPEDTAVYYCAALDYWGQGTQVTVSS,low polyreactivity
7,QVQLVESGGGLVQAGGSLRLSCAASGSIYITYAMGWYRQAPGKERELVAAIRDSGDRTYYADSVKGRFTISRDNAKNTVYLQMNSLKPEDTAVYYCNARWQEPLKYDYWGQGTQVTVSS,low polyreactivity
8,QVQLVESGGGLVQAGGSLRLSCAASGSIYNINAMGWYRQAPGKERELVATITSGGTTSYADSVKGRFTISRDNAKNTVYLQMNSLKPEDTAVYYCNAEIYPIVKAGRQHPRRYDYWGQGTQVTVSS,low polyreactivity
9,QVQLVESGGGLVQAGGSLRLSCAASGSIYPYYAKGWNRPAPRKERELFAAIDSGGSTNYADSLKGRFSITRDNAKNRVYLQLNSLIPEDTAVFYCADDVYWFAYVWSKYVFWGQGTHVTVSS,low polyreactivity
10,QVQLVESGGGLVQAGGSLRLSCAASGSIYQNAMGWYRQAPGKERELVAAITSSGGRTYADSVKGRFTISRDNAKNTVYLQMNSLKPEDTAVYYCAKDSTADELTGFDYWGQGTQVTVSS,low polyreactivity
11,QVQLVESGGGLVQAGGSLRLSCAASGSIYRWYAMGWYRQAPGKERELVASISSGTRTNYADSVKGRFTISRDNAKNTVYLQMNSLKPEDTAVYYCAAPYVKRWWGYGYWGQGTQVTVSS,high polyreactivity
12,QVQLVESGGGLVQAGGSLRLSCAASGSIYSNAMGWYRQAPGKERELVAAISRTGGSTYYADSVKGLFTISRDNAKITVYLQMNSLKPEDTAVYYCAVSAWTRSHALYYWGQGTQVTVSS,high polyreactivity
13,QVQLVESGGGLVQAGGSLRLSCAASGSIYSNAMGWYRQAPGKERELVAAISWRDGRTYYADSVKGRFTISRDNAKNTVYLQMNSLKPEDTAVYYCNADSRPLSTYYYWGQGTQVTVSS,low polyreactivity
14,QVQLVESGGGLVQAGGSLRLSCAASGSIYTHYAMGWYRQAPRKQRELVAAISRRGGSTYYADSVKGRFTISRDNAKNTVYLPMHSLKPEDTAVYYCAKSPDTAKEYDYWGQGTQVTVSS,high polyreactivity
15,QVQLVESGGGLVQAGGSLRLSCAASGSIYTQNAMGWYRQAPGKERELVADISRGSTYYADSVKGRFTISRDNAKNTVYLQMNSLKPEDTAVYYCAADDIAHPSFVSTVDVGMDYWGQGTQVTVSS,low polyreactivity
16,QVQLVESGGGLVQAGGSLRLSCAASGSIYVGNDMGWYSQAPGKESEFVATMSWAGGSTDYADSVKGRFTISRDNAKNTVYLQMNSQKPEDTAVYYCAKTPYSRYRYGGYTYRTFDYWGQGTQVTVSS,low polyreactivity
17,QVQLVESGGGLVQAGGSLRLSCAASGSIYVNAMGWYRQAPGKERELVAVISKSGGSTYYADSVKGRFTISRDNAKNTVYLQMNSLKPEDTAVYYCATRGVSPSRPGYYWGQGTQVTVSS,high polyreactivity
18,QVQLVESGGGLVQAGGSLRLSCAASGSIYVQNAMGWYRQAPGKERELVAAITFSGVDTYYADSVKGRFTISRDNAKNTVYFQMNSLKPEDTAVYYCNADRGYNLVRRSQAVVEMDYWGQGTQVTVSS,low polyreactivity
19,QVQLVESGGGLVQAGGSLRLSCAASGSIYWYAMGWYTQAPGKERELVAAITKSGSSTYYADSVKGRFTISRDNANNTVYLQMNSLIPEDTAVYYCAARRAVSGGVRMYYWGQGTQVTVSS,high polyreactivity
20,QVQLVESGGGLVQAGGSLRLSCAASGSIYYGKTMGWYRHAAGKEWELDAAISSGGSTKYADSVKGRFTISRDNAKNTVYLQMNSLKPEDTAVYYSAADLPRYWVTWMDYWGQGTQLTVSS,low polyreactivity
21,QVQLVESGGGLVQAGGSLRLSCAASGSIYYTNAMGWYRQAPGKERELVAAISYGGTTTYADSVKGRFTISRDNAKNTVYLQMNSLKPEDTAVYYCNADWLYYGYWGYGHIWYDYWGQGTQVTVSS,low polyreactivity
22,QVQLVESGGGLVQAGGSLRLSCAASGSKFYTNVMGWYRQAPGKERELVARIDSGGSTNYADSVKGRFTISRDNAKNTVYLQMNSLKPEDTAVYYCAADWYIYDYWGQGTQVTVSS,low polyreactivity

row,Sequence,polyreactivity (PSR sort gate)
1,QVQLVESGGGLVQAGGSLRLSCAASGSLFGGYAMGWYRQAPGKERELVAAISGSGGSTYYADSVKGRFTISRDNAKNTVYLQMNSLKPEDTAVYYCAAEYYGTYSEGGESYDYWGQGTQVTVSP,low polyreactivity
2,QVQLVESGGGLVQAGGSLRLSCAASGSLIRRYAMGWYRQAPGKEREFVAAISGRGGRTYYADSVKGRFTISRDNAKNTVYLQMNSLKPEDTAVYYCNAAFVTAEMDYWGQGTQVTVSS,high polyreactivity
3,QVQLVESGGGLVQAGGSLRLSCAASGSLSSRNAMGAYRQAPGKERELVAAITRGSSTNYADSVKGRFTISRDNAKNTVYLQMNSLKPEDTAVYYCARRYDPVYKGMGYWGQGTQVTVSS,low polyreactivity
4,QVQLVESGGGLVQAGGSLRLSCAASGSMFSVYAMGGYRQAPGKEMELVAAISRSGGSTYYADSVKGRFTISRDTAKNTVYLQMNSLKPEDTAVYYCAARLAGRGSSSSRVVRTGGYWGQGTQVTVSS,high polyreactivity
5,QVQLVESGGGLVQAGGSLRLSCAASGSNFAVYAMGWYRQAPGKERELVAAISFSGGSTYYADSVKGRFTISRDNAKNTVYLQMNSLKPEDTAVYYCAADPWWTRTDLDYWGQGTQVTVSS,low polyreactivity
6,QVQLVESGGGLVQAGGSLRLSCAASGSNFAYYTMGWYRPAPGKERELVAAITSGGSTYYADSVKGRFTISRDNAKNTVYLQMNSLKPEDTAVYYCATRHSVGRYGMDSWGQGTQVTVSS,high polyreactivity
7,QVQLVESGGGLVQAGGSLRLSCAASGSNFDDNAMGWYRQAPGKERELVAAITRSGGSTYYADSVKGRFTISRDNAKNTVYLQMISLKPEDTAVYYCAAAAYHSYGPGKRFYYWGQGSQVTVSS,high polyreactivity
8,QVQLVESGGGLVQAGGSLRLSCAASGSNFDTYAMGWYIPAPGKERELVAVLTWSGGGTYYSDSVKGRFTISRDNANNTVYLQMTSVKPEVTAVYYCNAADFGWDYASYYWGQGTQLTVSS,low polyreactivity
9,QVQLVESGGGLVQAGGSLRLSCAASGSNFETYVMGWYRQAPGKERELFAAINSGGSTNYADSVKGRFTISRDNAKNTVYLQMNSLKPEETAVYYCNADWFTPAQPWYRYFIRYDYWGQGSQVTVSS,low polyreactivity
10,QVQLVESGGGLVQAGGSLRLSCAASGSNFFYNVMGWYRQAPGKERELVAAITRSGGRTYYADSVKGRFTISRDNAKNTVYLQMNSLKPEDTAVYYCAAALGGKFDYWGQGTQVTVSS,high polyreactivity
11,QVQLVESGGGLVQAGGSLRLSCAASGSNFGPNAMGWYRQAPGKERELVAVISFRGGNTYYADSVKGRFTISRDNAKNTVYLQMNSLKPEDTAVYYCAARGYRYGYGYWGQGTQVTVSS,high polyreactivity
12,QVQLVESGGGLVQAGGSLRLSCAASGSNFGWYAMGWYRQAPGKERELVAAITFSSVSTYYADSEKGRFTISRDNAKNTVYLQMNSLKPEDTAVYYCAAVVYYTFDYWGLGTQVTVSS,low polyreactivity
13,QVQLVESGGGLVQAGGSLRLSCAASGSNFLCYTMGWYRQAPGKERELVAAISRTGGSTYYADSVKGRFTISRDNAKNTVYLQRNSLKPEDTAVYYCAASLYSITRARYDYWGQGTQVTVSS,high polyreactivity
14,QVQLVESGGGLVQAGGSLRLSCAASGSNFLYYAIGWYRQAPGKERELVDGIRRGGRTNYADSVKGRFTISRDNAKNTVYLQMNSLKPEDTAVYYCAKGGYWGQGTQVTVSS,high polyreactivity
15,QVQLVESGGGLVQAGGSLRLSCAASGSNFNYYTMGWYRQAPGKERELVAAISYRGGRTYYADSVKGRFTISRDTSKNTVYLQMNSLKPEDTAVYYCNAVTRIYEVDYWGQGTQVTVSS,high polyreactivity
16,QVQLVESGGGLVQAGGSLRLSCAASGSNFQFNAMGWYRQAPGKEREFVAAITSSAGRTYYADSVKGRFTISRDNAKNTVYLQMNSLKPEDSAVYYCGDTFYRRYVDLGYWGQGTQVTVSS,high polyreactivity
17,QVQLVESGGGLVQAGGSLRLSCAASGSNFRSNAMGWYRQAPGKERELVAAISRRGGSTYYADSVKGRFRISRDIAKNTVYLQMNSLKPEDTAVYYCAAPTIVSGHDSWGQGTQVTVSS,high polyreactivity
18,QVQLVESGGGLVQAGGSLRLSCAASGSNFRSYAMGWYIQAPGKERELVAAITWGGNTYYADSVKGRFTISRDNAKNTVYLQMNSLKPEDTAVYYCAAKSYYTRRSKYDYWGQGTQVTVSS,high polyreactivity
19,QVQLVESGGGLVQAGGSLRLSCAASGSNFRVYAMGWDRQAPGKERELVAAISSSGGITYYADSVKGRFTISRDNAKNTVYLQMNSLKPEDTAVYYCAKGTVIHVLYDYWGQGTQVTVSS,low polyreactivity
20,QVQLVESGGGLVQAGGSLRLSCAASGSNFSRNTMGWYRQAPWKERELVAGISSSGSRTYYADSVKGRFTISRDNAKNTVYLLMNSLKPEDTAVYYCAAEHQRSRGRRYYIGYDYWGQGTQVTVSS,low polyreactivity
21,QVQLVESGGGLVQAGGSLRLSCAASGSNFTAYAMGWYRQAPGKERELVAAIDDSGDSTYYADSVKGRFTISRDNSKNTVYLQMNSLKPEDTAVYYCKAEYRVNKEYDYWGQGTQVTVSS,low polyreactivity
